Experimental data published in patent US20210032312A1 (Janssen / Centocor, published 2021).
Substitutions are numbered along the chain they refer to.

B1: P282AR9P1356_B9 (designed binder)
chain: LPAPKNLVVSRVTEDSARLSWPEGDRPFFDSFLIQYQESEKVGEAIVLTVPGSERSYDLTGLKPGTEYTVSIYGVDVKWEGNRPVASNPLSAIFTT
notes: FN3 domain
B2: P283AR9P1362_G3 (designed binder)
chain: LPAPKNLVVSRVTEDSARLSWVKRATSFDSFLIQYQESEKVGEAIVLTVPGSERSYDLTGLKPGTEYTVSIYGVDVKWEGNRPVASNPLSAIFTT
notes: FN3 domain
B3: P282AR9P1356_A4 (designed binder)
chain: B2 chain with A25P, T26N, K77V, W78D, E79Y, G80E, N81G, V84R, A85W
notes: FN3 domain
B4: P282AR9P1356_A6 (designed binder)
chain: LPAPKNLVVSRVTEDSARLSWSKTDSSFDSFLIQYQESEKVGEAIVLTVPGSERSYDLTGLKPGTEYTVSIYGVDVVYIEGNPVFSNPLSAIFTT
notes: FN3 domain
B5: P283AR9P1362_C7 (designed binder)
chain: B2 chain with K77R, W78Y, E79N, G80E, N81G, R82Q, V84I, A85W
notes: FN3 domain
B6: P283AR9P1362_F8 (designed binder)
chain: B2 chain with V22G, K23Y, R24Y, A25H, T26G, S27H
notes: FN3 domain
B7: P282AR9P1356_A10 (designed binder)
chain: LPAPKNLVVSRVTEDSARLSWHTATNSFDSFLIQYQESEKVGEAIVLTVPGSERSYDLTGLKPGTEYTVSIYGVDVDYNPTGRPVSSNPLSAIFTT
notes: FN3 domain
B8: P282AR9P1356_D3 (designed binder)
chain: LPAPKNLVVSRVTEDSARLSWTRHETSFDSFLIQYRESEKVGEAIVLTVPGSERSYDLTGLKPGTEYTVSIYGVVVEYDAAGNPKYSNPLSAIFTT
notes: FN3 domain
B9: P283AR9P1362_D7 (designed binder)
chain: LPAPKNLVVSRVTEDSARLSWVKRATSFDSFLIQYQESEKVGEAIVLTVPGSERSYDLTGLKPGTEYTVSIYGVDVKYDIDSRPISSNPLSAIFTT
notes: FN3 domain
B10: P283AR9P1362_A3 (designed binder)
chain: B9 chain with V22K, K23R, R24I, A25D, T26S, S27P
notes: FN3 domain
B11: P283AR9P1362_D4 (designed binder)
chain: B9 chain with K23R, R24E, A25H, T26D
notes: FN3 domain
B12: P283AR9P1362_D3 (designed binder)
chain: LPAPKNLVVSRVTEDSARLSWPVESNAFDSFLIQYQESEKVGEAIVLTVPGSERSYDLTGLKPGTEYTVSIYGVDVEYDQHGRPRWSNPLSAIFTT
notes: FN3 domain
B13: P283AR9P1362_A4 (designed binder)
chain: B9 chain with V22I, K23G, R24H, A25D, T26S, S27G
notes: FN3 domain
B14: P283AR9P1362_F2 (designed binder)
chain: B9 chain with V22R, R24K, A25D, T26H, S27P
notes: FN3 domain
B15: P282AR9P1356_H6 (designed binder)
chain: B12 chain with P22R, V23K, E24R, S25A, A27S, D75H
notes: FN3 domain
B16: P283AR9P1362_B8 (designed binder)
chain: B9 chain with V22W, K23T, R24S, A25P, T26L, S27P
notes: FN3 domain
B17: P283AR9P1362_C12 (designed binder)
chain: B9 chain with V22A, R24N, A25L, T26H
notes: FN3 domain
B18: P283AR9P1362_D6 (designed binder)
chain: B9 chain with V22A, A25P, T26G, S27A
notes: FN3 domain
B19: P283AR9P1362_E9 (designed binder)
chain: B9 chain with K23P, R24S, A25P, T26W, S27G
notes: FN3 domain
B20: P283AR9P1362_G11 (designed binder)
chain: B9 chain with V22R, R24E
notes: FN3 domain
B21: P283AR9P1362_F12 (designed binder)
chain: B9 chain with V22A, K23R, R24N, A25I
notes: FN3 domain
B22: P282AR9P1356_H1 (designed binder)
chain: LPAPKNLVVSRVTEDSARLSWIPNPSSFDSFLIQYQESEKVGEAIVLTVPGSERSYDLTGLKPGTEYTVSIYGVDVVFDPVGFPSHSNPLSAIFTT
notes: FN3 domain
B23: P282BR9P1357_A9 (designed binder)
chain: LPAPKNLVVSRVTEDSARLSWKANRTTDLHFDSFLIQYQESEKVGEAIVLTVPGSERSYDLTGLKPGTEYTVSIYGVDVQYDGQQPLYSNPLSAIFTT
notes: FN3 domain

target: T1, In house human CD8A-Fc (human, UniProt P01732 22-182, limits assumed); experiment: SPR (ProteOn), captured hCD8A-Fc
T1 construct: Captured on goat anti-human Fc on a ProteOn GLC chip; also called hCD8A-Fc; recombinant human CD8 alpha; not shown: linker with flag (and polyhistidine) tag and Fc of human IgG1
T1 sequence (P01732 22-182 limits assumed): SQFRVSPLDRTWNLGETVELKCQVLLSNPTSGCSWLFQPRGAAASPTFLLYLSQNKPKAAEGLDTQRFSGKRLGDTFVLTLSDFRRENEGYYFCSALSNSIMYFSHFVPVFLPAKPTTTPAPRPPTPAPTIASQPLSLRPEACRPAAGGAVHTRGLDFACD
Experimental: Purified anti-CD8A FN3 domains were subjected to off-rate analysis using a Proteon surface plasmon resonance instrument in order to pick clones with the slowest off-rates for further characterization.
The immobilized GAH-Fc IgG densities averaged about 6000 Response Units (Ru) with less than 1% variation among different channels. In house human CD8A-Fc was captured in vertical orientation at 3 different ligand densities, 10, 5, 2.5 μg/ml for 5 minutes at 30 ul/minute flowrate. All FN3 domains were normalized to a 3 μM concentration, and tested for binding in horizontal orientation. All 6 analyte channels were used for FN3 domains to maximize the screening throughput. The dissociation phase was monitored for 15 minutes at a flow rate of 100 μl/min using PBST as running buffer. […] Data analyses were performed using Bio-Rad ProteOn Manager software (version 3.1.0.6). Raw data were double referenced by subtraction of the interspot (empty chip surface, no protein immobilized or captured) signals to correct the non-specific binding of the FN3 domain to the pre-coated GAH-Fc IgG surface, followed by a double correction using empty channel L6 where no hCD8A-Fc was captured. The processed binding data were locally fit to a 1:1 simple Langmuir binding model to extract the koff for each FN3 domain binding to captured hCD8A-Fc.

Row | Binder | koff
1 | B1 | 0.000295 s⁻¹
2 | B2 | 9.45e-05 s⁻¹
3 | B3 | 8.61e-05 s⁻¹
4 | B4 | 9.73e-05 s⁻¹
5 | B5 | 0.000186 s⁻¹
6 | B6 | 0.000112 s⁻¹
7 | B7 | 0.000291 s⁻¹
8 | B8 | 0.000158 s⁻¹
9 | B9 | 0.000118 s⁻¹
10 | B10 | 0.00153 s⁻¹
11 | B11 | 9.72e-05 s⁻¹
12 | B12 | 0.000125 s⁻¹
13 | B13 | 0.000302 s⁻¹
14 | B14 | 0.00211 s⁻¹
15 | B15 | 8.08e-05 s⁻¹
16 | B16 | 0.000648 s⁻¹
17 | B17 | 9.94e-05 s⁻¹
18 | B18 | 2.64e-05 s⁻¹
19 | B19 | 0.000327 s⁻¹
20 | B20 | 0.000102 s⁻¹
21 | B21 | 7.28e-05 s⁻¹
22 | B22 | 0.000114 s⁻¹
23 | B23 | 0.00059 s⁻¹

target: T2, cynomolgus monkey CD8A on primary cynomolgus monkey CD8+ T cells (cynomolgus monkey, UniProt P01732 23-235 (human entry)); experiment: flow cytometry, cyno CD8+ T cells, 2 uM FN3
T2 construct: also called Cyno CD8alpha
T2 sequence (P01732 other isoform, or with tags, fused parts or gaps limits assumed): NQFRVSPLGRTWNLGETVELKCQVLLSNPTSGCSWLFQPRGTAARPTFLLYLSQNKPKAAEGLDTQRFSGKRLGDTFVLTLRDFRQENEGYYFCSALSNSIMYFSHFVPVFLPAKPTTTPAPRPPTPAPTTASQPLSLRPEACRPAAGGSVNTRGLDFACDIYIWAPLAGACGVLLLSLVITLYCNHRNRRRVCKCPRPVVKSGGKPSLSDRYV
Experimental: (§1) Binding of the 190 ELISA hits to human and cynomologous monkey primary CD8 T cells was assessed by flow cytometry. The FN3 domain molecules were diluted to 2 μM and 0.2 μM in PBS and incubated with human or cynomologous monkey CD8+ T cells in 96-well format. After 1 hour at 4 C, the cells were washed once with PBS and then resuspended with an anti-FN3 domain antibody (PAB25) solution. Following this incubation, the cells were washed twice with PBS and a PE conjugated secondary antibody and a viability dye were added. Finally, cells were washed and resuspended in PBS for flow cytometric analysis using a BD Canto Instrument. Cells were gating on live cells and median fluorescence intensity of the bound Centyrins (PE channel) was calculated using Cytobank software.

Row | Binder | Cyno T-cell Binding 2 uM (MFI)
24 | B1 | 36400 MFI
25 | B2 | 35300 MFI
26 | B3 | 26400 MFI
27 | B4 | 31400 MFI
28 | B5 | 19700 MFI
29 | B6 | 23700 MFI
30 | B7 | 10600 MFI
31 | B8 | 13900 MFI
32 | B9 | 27500 MFI
33 | B10 | 17300 MFI
34 | B11 | 25700 MFI
35 | B12 | 34600 MFI
36 | B13 | 21200 MFI
37 | B14 | 26400 MFI
38 | B15 | 14400 MFI
39 | B16 | 12900 MFI
40 | B17 | 14800 MFI
41 | B18 | 33500 MFI
42 | B19 | 15900 MFI
43 | B20 | 32500 MFI
44 | B21 | 26300 MFI
45 | B22 | 46300 MFI
46 | B23 | 7280 MFI

target: T3, human CD8 alpha (CD8A) on primary human CD8+ T cells (human, UniProt P01732 22-235); experiment: flow cytometry, human CD8+ T cells, 2 uM FN3
T3 construct: whole, on cells; also called hCD8A
T3 sequence (P01732 22-235): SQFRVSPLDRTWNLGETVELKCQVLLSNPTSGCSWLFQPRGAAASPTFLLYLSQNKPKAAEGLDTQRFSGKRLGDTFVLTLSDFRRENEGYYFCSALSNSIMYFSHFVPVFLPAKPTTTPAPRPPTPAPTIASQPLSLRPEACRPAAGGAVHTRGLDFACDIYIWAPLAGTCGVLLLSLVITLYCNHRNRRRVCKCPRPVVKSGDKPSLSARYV
Experimental: as §1

Row | Binder | Human T-cell Binding 2 uM (MFI)
47 | B1 | 17200 MFI
48 | B2 | 18500 MFI
49 | B3 | 16700 MFI
50 | B4 | 10800 MFI
51 | B5 | 11000 MFI
52 | B6 | 9200 MFI
53 | B7 | 4260 MFI
54 | B8 | 5960 MFI
55 | B9 | 17300 MFI
56 | B10 | 5540 MFI
57 | B11 | 9830 MFI
58 | B12 | 9500 MFI
59 | B13 | 6310 MFI
60 | B14 | 9620 MFI
61 | B15 | 6650 MFI
62 | B16 | 5740 MFI
63 | B17 | 7060 MFI
64 | B18 | 13700 MFI
65 | B19 | 6180 MFI
66 | B20 | 12700 MFI
67 | B21 | 8970 MFI
68 | B22 | 14700 MFI
69 | B23 | 3120 MFI

target: T2, cynomolgus monkey CD8A on primary …; experiment: flow cytometry, cyno CD8+ T cells, 0.2 uM FN3
Experimental: as §1

Row | Binder | Cyno T-cell Binding 0.2 uM (MFI)
70 | B1 | 5440 MFI
71 | B2 | 9200 MFI
72 | B3 | 8630 MFI
73 | B4 | 5780 MFI
74 | B5 | 5520 MFI
75 | B6 | 4570 MFI
76 | B7 | 3120 MFI
77 | B8 | 3360 MFI
78 | B9 | 4850 MFI
79 | B10 | 3530 MFI
80 | B11 | 4100 MFI
81 | B12 | 6050 MFI
82 | B13 | 4400 MFI
83 | B14 | 5520 MFI
84 | B15 | 3200 MFI
85 | B16 | 2270 MFI
86 | B17 | 3830 MFI
87 | B18 | 7720 MFI
88 | B19 | 2840 MFI
89 | B20 | 6830 MFI
90 | B21 | 3790 MFI
91 | B22 | 5700 MFI
92 | B23 | 1940 MFI

target: T3, human CD8 alpha (CD8A) on primary human …; experiment: flow cytometry, human CD8+ T cells, 0.2 uM FN3
Experimental: as §1

Row | Binder | Human T-cell Binding 0.2 uM (MFI)
93 | B1 | 3670 MFI
94 | B2 | 4310 MFI
95 | B3 | 4380 MFI
96 | B4 | 3440 MFI
97 | B5 | 2790 MFI
98 | B6 | 3170 MFI
99 | B7 | 2090 MFI
100 | B8 | 2400 MFI
101 | B9 | 3350 MFI
102 | B10 | 1400 MFI
103 | B11 | 2980 MFI
104 | B12 | 3480 MFI
105 | B13 | 2540 MFI
106 | B14 | 1370 MFI
107 | B15 | 2640 MFI
108 | B16 | 1580 MFI
109 | B17 | 2620 MFI
110 | B18 | 3660 MFI
111 | B19 | 2010 MFI
112 | B20 | 3530 MFI
113 | B21 | 2620 MFI
114 | B22 | 3230 MFI
115 | B23 | 1070 MFI
